Experimental data taken from article PMC7836013, “Characterization of Formononetin Sulfonation in SULT1A3 Overexpressing HKE293 Cells: Involvement of Multidrug Resistance-Associated Protein 4 in Excretion of Sulfate” (Frontiers in Pharmacology, 2021).

B1: HEK-SULT1A3 cell lysate (Homo sapiens) (protein)
chain: MELIQDTSRPPLEYVKGVPLIKYFAEALGPLQSFQARPDDLLINTYPKSGTTWVSQILDMIYQGGDLEKCNRAPIYVRVPFLEVNDPGEPSGLETLKDTPPPRLIKSHLPLALLPQTLLDQKVKVVYVARNPKDVAVSYYHFHRMEKAHPEPGTWDSFLEKFMAGEVSYGSWYQHVQEWWELSRTHPVLYLFYEDMKENPKREIQKILEFVGRSLPEETMDFMVQHTSFKEMKKNPMTNYTTVPQELMDHSISPFMRKGMAGDWKTTFTVAQNERFDADYAEKMAGCSLSFRSEL
notes: expressed in transfected cells; cell lysate used
B2: Recombinant human SULT1A3 enzymes (rSULT1A3) (Homo sapiens) (protein)
chain: MELIQDTSRPPLEYVKGVPLIKYFAEALGPLQSFQARPDDLLINTYPKSGTTWVSQILDMIYQGGDLEKCNRAPIYVRVPFLEVNDPGEPSGLETLKDTPPPRLIKSHLPLALLPQTLLDQKVKVVYVARNPKDVAVSYYHFHRMEKAHPEPGTWDSFLEKFMAGEVSYGSWYQHVQEWWELSRTHPVLYLFYEDMKENPKREIQKILEFVGRSLPEETMDFMVQHTSFKEMKKNPMTNYTTVPQELMDHSISPFMRKGMAGDWKTTFTVAQNERFDADYAEKMAGCSLSFRSEL
notes: purchased Sekisui XenoTech LCC (Kansas, USA)

How the values were obtained:
[1] = substrate: COc1ccc(-c2coc3cc(O)ccc3c2=O)cc1; test: Formononetin sulfonation enzyme kinetics in HEK-SULT1A3 cell lysate; type: in vitro ADME, human; conditions: other: HEK-SULT1A3 cell lysate, Michaelis-Menten, mean ± SD (n = 3); pH 7.4
Protocol: (§1) Enzyme kinetic of formononetin incubated with recombinant human SULT1A3 enzyme (rSULT1A3) was evaluated. The reaction was activated after the coenzyme PAPS (which provides sulfonate group to the substrates) was added. The incubation reaction was conducted in 200 μL potassium phosphate buffer (50 mM, pH 7.4) at 37°C, containing SULT1A3 enzyme (0.1 mg/ml), formononetin (0.16–40 μM), and PAPS (a final concentration of 0.10 mM). After incubation for 120 min, the reaction was terminated by adding 100 μL ice-cold acetonitrile. Then the samples were vortexed and centrifuged at 15,000 g for 15 min. The supernatant was analyzed by HPLC for sulfate quantification. All incubations were performed in triplicate. Preliminary experiments were performed to ensure that the rates of sulfation were determined under linear conditions with respect to incubation time and protein concentration.
The sulfonation rates of formononetin at different concentrations were determined according to the sulfonation assay protocol. The kinetic model Michaelis-Menten (Eq. 1) was fitted to the data of sulfonation rates vs. formononetin concentrations. […] The intrinsic clearance (CLint) was calculated by Vmax/Km.
Quantification of formononetin sulfate was performed using Agilent 1,260 Infinity II HPLC system with a ZORBAX SB-C18 column (4.6 × 250 mm, 5 μm; Agilent). […] The samples were analyzed using a gradient of ammonium acetate (2.5 mM) in water (mobile phase A) vs. acetonitrile (mobile phase B) at a flow rate of 1.0 ml/min. […]
HEK293 cells were stably transfected with the cDNA of Human SULT1A3 enzyme through the lentiviral transduction approach ([Sun et al., 2015]), which were named as HEK-SULT1A3 cells. The transduction efficiency was evaluated by measuring the SULT1A3 protein levels in both control and transfected cells. The enzyme function of HEK-SULT1A3 cells was further determined using sulfonation assay. […] Then, in order to identify the function of HEK-SULT1A3 cells in sulfate generation, formononetin was incubated with the HEK-SULT1A3 cell lysate and enzyme kinetic was determined as described above.

[2] = substrate: COc1ccc(-c2coc3cc(O)ccc3c2=O)cc1; test: Formononetin sulfonation enzyme kinetics in recombinant human SULT1A3; type: in vitro ADME; conditions: other: rSULT1A3, Michaelis-Menten, mean ± SD (n = 3); pH 7.4
Protocol: as §1
The sulfonation rates of formononetin at different concentrations were determined according to the sulfonation assay protocol. The kinetic model Michaelis-Menten (Eq. 1) was fitted to the data of sulfonation rates vs. formononetin concentrations. Model selection was based on visual inspection of the Eadie-Hofstee plot. […] Model fitting and kinetic parameters evaluation were performed using GraphPad Prism software (5.3 version). V=Vmax·[S]/Km+[S] (1) where Vmax is the maximal velocity and Km is the Michaelis constant. The intrinsic clearance (CLint) was calculated by Vmax/Km.
Quantification of formononetin sulfate was performed using Agilent 1,260 Infinity II HPLC system with a ZORBAX SB-C18 column (4.6 × 250 mm, 5 μm; Agilent). The temperature of the column was set at 40 °C. The samples were analyzed using a gradient of ammonium acetate (2.5 mM) in water (mobile phase A) vs. acetonitrile (mobile phase B) at a flow rate of 1.0 ml/min. The gradient elution condition was 15% B at 0–2.0 min, 15–95% B at 2.0–12 min, 95% B at 12–15 min, and 95–15% B at 15–18 min. The waiting time was 7.0 min at 15% B in order to ensure the column pressure is back to a stable state before the next injection. […]

| Protein | Km [1] | Vmax [1] | Vmax/Km [1] | Km [2] | Vmax [2] | Vmax/Km [2] |
| --- | --- | --- | --- | --- | --- | --- |
| B1 | 6.17 µM | 13.94 pmol/min/mg | 2.26 ± 0.42 µL/min/mg |  |  |  |
| B2 |  |  |  | 6.01 ± 0.97 µM | 145.30 ± 7.91 pmol/min/mg | 24.18 ± 4.13 µL/min/mg |
